Ends that are not written are not given here. * marks the point of attachment. Biotin = O=C1N[C@H]2[C@H](CS[C@H]2CCCCC(=O)*)N1
Columns and labels:
Assay in all cases: peptide or protein array; E. coli proteome chip: purified His-tagged proteins printed in duplicate on Fullmoon slides, blocked with 1% BSA; 10 nM N-terminal biotinylated LfcinB with 1% BSA, room temperature, 1 h; detected with DyLight 649-labeled streptavidin, ratio to DyLight 549-labeled anti-His antibody; ProCAT normalisation, local cut-off; triplicate chips
Conditions in all cases: both partners purified
[1] = molecular target: T1, NrdB (E. coli K-12, UniProt P69924 1-376)
T1 construct: NrdB, E. coli K-12
T1 sequence (looked up): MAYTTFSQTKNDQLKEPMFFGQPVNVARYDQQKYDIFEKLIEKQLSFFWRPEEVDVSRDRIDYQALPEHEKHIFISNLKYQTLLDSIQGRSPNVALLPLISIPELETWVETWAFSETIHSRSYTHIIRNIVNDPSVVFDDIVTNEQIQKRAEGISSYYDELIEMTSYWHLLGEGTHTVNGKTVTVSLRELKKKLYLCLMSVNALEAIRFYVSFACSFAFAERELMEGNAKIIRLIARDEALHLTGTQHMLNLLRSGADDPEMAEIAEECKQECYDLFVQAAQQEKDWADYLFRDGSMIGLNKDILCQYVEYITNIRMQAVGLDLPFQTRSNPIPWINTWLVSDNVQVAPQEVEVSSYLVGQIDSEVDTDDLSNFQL

[2] = molecular target: T2, YjfW (E. coli K-12, UniProt P39305 1-284)
T2 construct: YjfW, E. coli K-12
T2 sequence (looked up): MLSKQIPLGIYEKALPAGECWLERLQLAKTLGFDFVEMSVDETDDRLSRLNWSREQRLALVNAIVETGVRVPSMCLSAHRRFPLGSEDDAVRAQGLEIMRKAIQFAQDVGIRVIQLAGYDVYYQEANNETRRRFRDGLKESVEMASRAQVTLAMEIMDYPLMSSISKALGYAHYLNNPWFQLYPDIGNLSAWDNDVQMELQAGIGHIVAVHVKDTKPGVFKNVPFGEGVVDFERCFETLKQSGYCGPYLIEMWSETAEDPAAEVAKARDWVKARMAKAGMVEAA

[3] = molecular target: T3, YcaO (E. coli K-12, UniProt P75838 1-586)
T3 construct: YcaO, E. coli K-12

[4] = molecular target: T4, YjbM (E. coli K-12, UniProt P32694 1-235)
T4 construct: YjbM, E. coli K-12
T4 sequence (looked up): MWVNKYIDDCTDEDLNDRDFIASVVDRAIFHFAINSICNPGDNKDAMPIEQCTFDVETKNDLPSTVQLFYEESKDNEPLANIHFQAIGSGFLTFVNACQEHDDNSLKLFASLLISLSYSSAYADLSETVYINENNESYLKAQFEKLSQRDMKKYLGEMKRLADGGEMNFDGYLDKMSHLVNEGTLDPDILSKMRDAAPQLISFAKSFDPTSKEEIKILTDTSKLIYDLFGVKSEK

Measured: binding result

T3 sequence (P75838 whole entry): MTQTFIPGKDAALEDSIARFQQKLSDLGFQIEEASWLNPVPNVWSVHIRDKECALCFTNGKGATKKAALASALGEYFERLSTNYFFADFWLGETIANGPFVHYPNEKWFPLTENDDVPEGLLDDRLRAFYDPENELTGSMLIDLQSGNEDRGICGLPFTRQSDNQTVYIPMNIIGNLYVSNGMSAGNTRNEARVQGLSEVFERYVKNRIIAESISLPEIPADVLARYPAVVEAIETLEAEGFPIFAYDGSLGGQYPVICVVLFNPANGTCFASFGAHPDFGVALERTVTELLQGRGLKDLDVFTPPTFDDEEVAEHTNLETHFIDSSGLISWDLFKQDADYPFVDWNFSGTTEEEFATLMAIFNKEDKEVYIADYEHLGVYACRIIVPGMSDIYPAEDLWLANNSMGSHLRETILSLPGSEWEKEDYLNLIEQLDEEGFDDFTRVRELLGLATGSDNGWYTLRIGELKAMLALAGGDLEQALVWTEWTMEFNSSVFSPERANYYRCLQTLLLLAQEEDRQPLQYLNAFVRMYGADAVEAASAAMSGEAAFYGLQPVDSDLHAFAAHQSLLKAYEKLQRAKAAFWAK

B1: N-terminal biotinylated Lactoferricin B (peptide, UniProt P24627 36-60, looked up)
peptide: Biotin-FKCRRWQWRMKKLGAPSITCVRRAF
modifications: ends and bridges not checked
notes: lactoferricin B (LfcinB), cationic antimicrobial peptide of 25 amino acids; also called biotinylated LfcinB; biotin-labeled LfcinB; source: bought: Kelowna Inc
binds: [1] | [2] | [3] | [4]
